These results are taken from patent publication US20130164251A1 (JIANGSU T MAB BIOPHARMA, published 2013).

What all share (assay): SPR (Biacore 3000), G-CSFR amine-coupled to CM5 chip, 1:1 Langmuir fit
The target of experiment [1] is G-CSF receptor G-CSFR (R & D company, Item No. 381GR/CF) (UniProt Q99062).
Experiment [2] concerns the target T1, G-CSF receptor G-CSFR (R & D company, Item No. 381GR/CF) (UniProt Q99062 25-621, limits assumed).
T1 construct: Bought reagent, amine-coupled to a CM5 chip; also called the receptor
T1 sequence (looked up): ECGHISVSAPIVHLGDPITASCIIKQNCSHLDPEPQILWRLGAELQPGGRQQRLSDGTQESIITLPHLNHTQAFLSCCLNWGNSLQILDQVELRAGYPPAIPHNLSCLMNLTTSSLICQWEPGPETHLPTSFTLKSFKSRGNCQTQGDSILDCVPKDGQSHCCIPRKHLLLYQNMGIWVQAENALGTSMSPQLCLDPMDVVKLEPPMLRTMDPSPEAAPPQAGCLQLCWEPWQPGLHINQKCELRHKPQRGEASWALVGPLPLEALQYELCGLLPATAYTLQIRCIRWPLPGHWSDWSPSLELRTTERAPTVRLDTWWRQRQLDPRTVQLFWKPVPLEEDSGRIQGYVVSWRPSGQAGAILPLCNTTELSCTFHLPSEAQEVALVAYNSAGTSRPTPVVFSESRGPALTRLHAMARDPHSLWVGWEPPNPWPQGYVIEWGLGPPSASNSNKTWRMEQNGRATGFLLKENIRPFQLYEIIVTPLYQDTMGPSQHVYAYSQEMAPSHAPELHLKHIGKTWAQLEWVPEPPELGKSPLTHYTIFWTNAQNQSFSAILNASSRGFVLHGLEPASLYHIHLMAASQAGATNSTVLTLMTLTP
On the procedure: (§1) The receptor G-CSFR (R & D company, Item No. 381GR/CF) was coupled to FC₄ cell of a CM5 chip by using an amine coupling method in Biacore® 3000 control software Wizard. HBS-P buffer (10 mM HEPES, 150 mM NaCl, and 0.005% (v/v) surfactant P20, pH 7.4) was used as the working buffer, and 1 mg/mL of G-CSFR was diluted with 10 mM NaAC (pH 4.5) to a final concentration of 20 μg/mL. A 1:1 mixture of 0.2 M EDC and 50 mM NHS was injected by flowing through the surface of the chip at a rate of 10 μL/min, G-CSFR solution was injected, then 1 M ethanolamine (pH 8.5) was injected for 7 min to block the activated chip surface.
(§2) rHSA/mG-CSF and G-CSF standards were quantitatively diluted with a HBS-P buffer, and a kinetic test was conducted following a kinetic analysis Wizard in Biacore® 3000 control software. All the samples were injected at the flow rate of 30 μL/min, and the injection time of 3 min. After 5 min of disassociation, 50 mM NaOH, 1 M NaCL, and HBS-P buffer were respectively injected for 15 s and 60 s at a flow rate of 100 μL/min for regeneration. The obtained data was fitted using a 1:1 Langmuir binding model in Biacore 3000 analysis software, to obtain exact kinetic constants: […]

Experiment [3] addresses T1, G-CSF receptor G-CSFR (R & D company, …). The procedure:
as §1, §2
This is another data set of the same source.

Like-named read-outs stand apart in the source and are kept apart here.

The Kd is the concentration at which binding is half-saturated. Low readings indicate higher affinity, high ones lower affinity.

For “rHSA/G-CSF mutant L19I (from UniProt P09919 31-207) (ligand)”, the Kd in experiment [1] amounted to 11200 pM.
The molecule “recombinant human serum albumin-granulocyte-colony stimulating factor fusion protein (rHSA/G-CSF) (ligand)” showed a Kd in experiment [1] of 1300 pM.

B1: human granulocyte-colony stimulating factor (G-CSF) (ligand)
chain: TPLGPASSLPQSFLLKCLEQVRKIQGDGAALQEKLCATYKLCHPEELVLLGHSLGIPWAPLSSCPSQALQLAGCLSQLHSGLFLYQGLLQALEGISPELGPTLDTLQLDVADFATTIWQQMEELGMAPALQPTQGAMPAFASAFQRRAGGVLVASHLQSFLEVSYRVLRHLAQP
notes: also called G-CSF standards
For the molecule B1, the Kd in experiment [2] and in experiment [3] was 300 pM throughout.
